Measured values: US20200283521A1 (GRANULAR THERAPEUTICS, published 2020)

Columns and labels:
Test in all cases: cell array, transfected fixed HEK293 cells
[1] = target: T1, MS4A1 (human, UniProt P11836)
T1 construct: expressed in transfected HEK293 cells; also called CD20
T1 sequence (looked up): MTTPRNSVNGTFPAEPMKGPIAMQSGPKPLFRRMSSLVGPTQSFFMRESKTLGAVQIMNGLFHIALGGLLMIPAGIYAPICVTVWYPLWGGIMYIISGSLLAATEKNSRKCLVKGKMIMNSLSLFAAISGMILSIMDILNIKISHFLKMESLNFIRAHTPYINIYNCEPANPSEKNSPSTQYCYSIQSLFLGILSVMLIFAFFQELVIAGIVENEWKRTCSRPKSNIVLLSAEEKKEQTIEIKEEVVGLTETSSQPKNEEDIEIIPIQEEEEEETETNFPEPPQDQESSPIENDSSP
Procedure: (§1) Transfection of all plasmids was confirmed by screening for the co-encoded marker ZS green (FIG. 13A).
(§2) Primary hits (duplicate spots) were identified by analysing fluorescence (AF647 and ZsGreenl) on ImageQuant. Vectors encoding all hits were sequenced to confirm their correct identities. […] Slides were analysed as above.

[2] = target: T2, DES (human, UniProt P17661)
T2 construct: expressed in transfected HEK293 cells
T2 sequence (P17661 2-470 limits assumed): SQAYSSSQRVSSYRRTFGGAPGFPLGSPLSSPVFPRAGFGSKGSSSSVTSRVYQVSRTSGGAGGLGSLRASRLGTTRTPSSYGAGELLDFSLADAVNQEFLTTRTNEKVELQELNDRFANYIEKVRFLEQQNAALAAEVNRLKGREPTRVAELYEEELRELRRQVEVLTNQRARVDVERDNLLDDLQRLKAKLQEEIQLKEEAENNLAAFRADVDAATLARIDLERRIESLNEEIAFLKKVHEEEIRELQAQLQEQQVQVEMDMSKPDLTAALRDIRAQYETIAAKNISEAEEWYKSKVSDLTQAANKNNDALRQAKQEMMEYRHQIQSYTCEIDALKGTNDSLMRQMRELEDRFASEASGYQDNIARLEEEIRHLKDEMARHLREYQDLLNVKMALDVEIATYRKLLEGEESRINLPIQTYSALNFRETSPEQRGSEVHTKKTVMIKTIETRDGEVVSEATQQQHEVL
Procedure: as §1, §2

[3] = target: T3, KRT19 (human, UniProt P08727)
T3 construct: expressed in transfected HEK293 cells
T3 sequence (looked up): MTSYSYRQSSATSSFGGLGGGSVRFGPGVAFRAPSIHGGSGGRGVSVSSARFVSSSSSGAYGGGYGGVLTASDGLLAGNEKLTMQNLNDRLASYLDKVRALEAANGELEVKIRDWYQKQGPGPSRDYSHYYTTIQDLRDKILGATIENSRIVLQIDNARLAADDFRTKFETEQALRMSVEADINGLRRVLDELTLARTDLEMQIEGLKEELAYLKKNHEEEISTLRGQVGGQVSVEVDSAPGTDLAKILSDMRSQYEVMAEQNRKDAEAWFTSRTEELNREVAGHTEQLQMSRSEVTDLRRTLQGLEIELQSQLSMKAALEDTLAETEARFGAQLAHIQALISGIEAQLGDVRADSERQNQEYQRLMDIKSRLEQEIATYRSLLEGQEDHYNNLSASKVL
Procedure: as §1, §2

[4] = target: T4, BAIAP2L2 (human, UniProt Q6UXY1)
T4 construct: expressed in transfected HEK293 cells
T4 sequence (looked up): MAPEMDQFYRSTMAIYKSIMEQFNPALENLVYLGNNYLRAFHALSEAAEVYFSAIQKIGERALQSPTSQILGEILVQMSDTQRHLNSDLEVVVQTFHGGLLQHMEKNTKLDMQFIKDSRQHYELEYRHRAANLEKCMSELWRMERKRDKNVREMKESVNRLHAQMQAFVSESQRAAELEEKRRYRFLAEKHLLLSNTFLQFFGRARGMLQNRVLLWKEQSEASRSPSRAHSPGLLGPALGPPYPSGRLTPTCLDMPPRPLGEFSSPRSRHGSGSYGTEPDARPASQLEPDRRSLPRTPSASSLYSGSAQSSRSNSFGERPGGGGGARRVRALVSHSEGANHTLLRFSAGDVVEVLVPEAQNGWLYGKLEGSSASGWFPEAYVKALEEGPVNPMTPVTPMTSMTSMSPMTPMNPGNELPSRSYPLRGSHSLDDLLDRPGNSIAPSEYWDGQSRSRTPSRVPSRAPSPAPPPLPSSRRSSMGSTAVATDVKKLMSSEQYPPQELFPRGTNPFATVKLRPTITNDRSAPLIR
Procedure: as §1, §2

[5] = target: T5, SLMAP (human, UniProt Q14BN4)
T5 construct: expressed in transfected HEK293 cells
T5 sequence (looked up): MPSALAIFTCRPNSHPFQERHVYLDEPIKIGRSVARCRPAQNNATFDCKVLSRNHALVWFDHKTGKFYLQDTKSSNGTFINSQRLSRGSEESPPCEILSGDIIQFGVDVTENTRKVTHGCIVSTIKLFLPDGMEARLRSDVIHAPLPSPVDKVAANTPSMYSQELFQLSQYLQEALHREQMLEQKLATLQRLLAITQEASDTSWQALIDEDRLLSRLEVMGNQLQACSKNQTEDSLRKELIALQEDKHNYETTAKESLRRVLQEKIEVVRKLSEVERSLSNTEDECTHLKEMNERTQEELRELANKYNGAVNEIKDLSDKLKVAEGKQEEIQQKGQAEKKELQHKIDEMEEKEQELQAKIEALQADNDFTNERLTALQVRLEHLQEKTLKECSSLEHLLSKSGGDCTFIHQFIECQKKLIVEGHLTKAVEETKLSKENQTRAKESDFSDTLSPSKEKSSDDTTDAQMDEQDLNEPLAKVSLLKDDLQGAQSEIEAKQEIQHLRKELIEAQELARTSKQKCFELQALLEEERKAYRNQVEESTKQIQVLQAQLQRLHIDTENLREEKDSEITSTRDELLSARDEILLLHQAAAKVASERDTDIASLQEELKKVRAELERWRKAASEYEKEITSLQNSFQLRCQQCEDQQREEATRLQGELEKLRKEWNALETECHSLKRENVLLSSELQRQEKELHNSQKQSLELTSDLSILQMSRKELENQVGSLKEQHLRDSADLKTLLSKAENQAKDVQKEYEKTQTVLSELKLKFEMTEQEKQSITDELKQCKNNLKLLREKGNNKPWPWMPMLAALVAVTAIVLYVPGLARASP
Procedure: as §1, §2

[6] = target: T6, TGM2 (human, UniProt P21980)
T6 construct: expressed in transfected HEK293 cells
T6 sequence (looked up): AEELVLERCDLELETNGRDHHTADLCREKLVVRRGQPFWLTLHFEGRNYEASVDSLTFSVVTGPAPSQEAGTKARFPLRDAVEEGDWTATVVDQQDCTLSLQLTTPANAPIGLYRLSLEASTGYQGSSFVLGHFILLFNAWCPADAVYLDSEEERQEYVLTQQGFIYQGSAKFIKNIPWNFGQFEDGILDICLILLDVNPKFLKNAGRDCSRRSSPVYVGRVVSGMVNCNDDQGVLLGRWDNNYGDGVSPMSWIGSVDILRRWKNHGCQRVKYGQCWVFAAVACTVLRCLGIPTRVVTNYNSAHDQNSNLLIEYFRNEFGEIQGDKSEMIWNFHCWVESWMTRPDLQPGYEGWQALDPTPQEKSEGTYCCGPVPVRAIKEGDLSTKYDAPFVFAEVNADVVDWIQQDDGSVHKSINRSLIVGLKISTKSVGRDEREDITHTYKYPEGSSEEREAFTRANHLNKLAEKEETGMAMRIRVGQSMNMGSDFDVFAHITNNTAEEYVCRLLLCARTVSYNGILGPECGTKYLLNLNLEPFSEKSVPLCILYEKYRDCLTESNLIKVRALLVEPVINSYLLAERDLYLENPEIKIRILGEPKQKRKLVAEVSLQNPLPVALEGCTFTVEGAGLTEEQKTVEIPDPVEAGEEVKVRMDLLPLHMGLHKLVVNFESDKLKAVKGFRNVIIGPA
Procedure: as §1, §2

[7] = target: T7, EGFR (human, UniProt P00533)
T7 construct: expressed in transfected HEK293 cells
Procedure: as §1, §2

- binding result [1]: no binding (tested: 2 µg/ml)
- binding result [2]: no binding (tested: 2 µg/ml)
- binding result [3]: no binding (tested: 2 µg/ml)
- binding result [4]: no binding (tested: 2 µg/ml)
- binding result [5]: no binding (tested: 2 µg/ml)
- binding result [6]: no binding (tested: 2 µg/ml)
- binding result [7]: no binding (tested: 2 µg/ml)
B1: MH1, human IgG1 (antibody, V domains shown)
VH: QVQLVQSGAEVKKPGASVKVSCKASGYTFTDYYMNWVRQAPGQGLEWMGRIYPGSGNTYYAQKFQGRVTMTRDTSTSTVYMELSSLRSEDTAVYYCARGVYYYDYWGQGTLVTVSS
VL: DIQMTQSPSSLSASVGDRVTITCRASQGIRTNLAWFQQKPGKAPKSLIYAASSLQSGVPSRFSGSGSGTDFTLTISSLQPEDFATYYCQQYNSYPRTFGGGTKVEIK
notes: IgG1; also called IgG1-MH1
